{
  "source": "paper PMC9898865",
  "molecular_target": "SARS-CoV-2 S protein (residues 1-1212 with stabilizing mutations R684G, R685S, R678G, K998P and V999 (SARS-CoV-2) (UniProt P0DTC2))",
  "experiment": "ELISA; ELISA-like solid-phase binding: ligands coated on 96-well plates in TBS, 6 h RT (S protein 20 µg/ml, vitronectin 5 µg/ml, fibrinogen 20 µg/ml, fibronectin 10 µg/ml); velcro-tagged integrins at 10 µg/ml in 20 mM Hepes, 150 mM NaCl, 1 mM MnCl2, pH 7.2, 2 h RT; detected by biotinylated anti-velcro antibody, streptavidin-HRP, ABTS, 405 nm",
  "data": [
    {"substance": "velcro-tagged integrin α5β1 (from UniProt P08648 42-995; P05556 21-728) (receptor)", "values": [
      {"measurement": "fold weaker than the binding to the physiological ligand (fibronectin)", "value": "< 10", "unit": "fold"}
    ]}
  ]
}
